In the DeepSol protein solubility set:

Assay: soluble on expression in E. coli; label from the status in PepcDB or PDB records

Sequence | soluble on expression in E. coli
MTNWKPLVSVITPSYNARDYIEDTVHSVLDQSHPHWEMIIVDDCSTDGTRDILQQYEKIDERIHVVYLEENSGAAVARNKALERAQGRYVAFLDSDDKWKKDKLEKQLEFMMERSCAFSFTGYSLMAQDGTPLDKFIHAPESLTYDDALKNTIIGCLTVMIDREQTGQIQMPNIRTRQDLATWLSLLKKGFTAYGMNECLAEYRLVNNSISSNKWKAAKKTWFVYREIERLHFMKATWCFVQYAKNAVKKRL | soluble
MAHHHHHHMNSTLVHDLQQFRYVTAFTNPLPWPHVRRVSIPGLRHEAPDLPFMANLISALSDCDVSLHKIHEHNDTDILQLVQVLQACLQFSLWSQNILKEKLLEVQATHVAKGVSAQQLENLEKRYHALEGEMAALHKDRGMLSLGTANLRTSLAQMEKTIKRQERQLQQERGRNAQLVAKLEKALCARAVAAPLMSAPRLPPPRESQQRPAGNRHASAPTHRTTKATTVYDSSRLPTDNADAHRDSIASLTSDTSYGDSCLSAEVAARTHSHVPQPCDSLDPPPPPFLDWRTLVRYIIHEEQRASVWASNHASPTAARATADERGIASKEELMPAAQHPSKPAAALPAAATQRVTEAQLDSFFAGLTAGVTTEVVAYSRAVAARVEEMVRAATQQWIQETAEAQQALMAQVQAALGSLGAELAVHKQLKDATPSPALRTVAMPVATSDASDPHAQLAPFSPVLASSSVRNSAAAALPAPCQHAGNALVTLANAPPTNDSKPLSQPPQTSASPLTPSIDSSPPASFLNSFVMSGTALCHSTTGCEVLDGGSKTRTPLPDFSPDILRTPPTSEHGTAAAPLGTGSDGPRSVVSRADDADERDVDVDLLPLDSSSSDSSSGSSQRSDGTADGVAEVSHAYARVLAKPSSPPPMYPNKTPTAAAFVVQPAAPTHPSANRTLSLHFSTRSDVSEGSSYGSSQMLRETRAQLQALLEEEEAAGRAKTHR | not soluble
MGSDKIHHHHHHMPKRRLPSLNALRAFESAARNQSMTRAAEELCVTHSAISRHVAKLEDYLNAKLFERGHQQVVLTKRGAAYASRLQVLFDQIQDVTAEYFYARPDNASLRIGVLSTFAMRFLIPRLARFKKLYPEITLQVESAHEHVSPRDEEVDVAIWFGNGDWPGLVSEHLFHEELVPVGSPTLLAGHELGNPDDLESFLLLHAAARHDDWQRWLSATGATRVDGYKGLKLEYSGLAYQGAVDGLGLAMAQTLFVQEDLANRRLVAALPQRVKTGRSYYLVHNEMKSEQPVILRFSEWLKDEVRKTIEEIDRTQAEHIEVV | not soluble
MKKYYVRCKDSKGENASLVIEALSPEHAKEQAYEVYEVGDIYNVSLGEGKSKNCLDRKYSPYIKNDNGKAITIFSLEHHHHHH | not soluble
GPLENWFTEFDIKPLASASIAQVHTARLKDTNQEVVLKVIRPDIRPVIDSDLKLMHRMARIVAGAMPEARRLKPVEVVREYEKTLLDELDLRREAANAIQLRRNFEGSEELYVPEVFPDFS | not soluble
MAHHHHHHMAKAIGDGDTGDAWWANPEHLAAIDATAAAEAVVSVPHQPEKNTGTGCSSRITAMRYYMKPDTWTQTLLSDEGETARENRTDGEVPHSGSASTGAVTSSDPRGCNSDAHVHHQATSSLLSTASSVVTTTATEEASSLPAASSPLHGLPLHQLIEQHAALVRRLVQVLAPQRQTIPHVIRELCTTRVTSPSSAVASRVCVLPSMDASNAEPMQYTERDVAAAVEQLTSSHPRQPRLRELKSDGYLLMNLEGFADGKTRHKAVNRAYPALALHWPASVQQMDAMERYVDRDVVLDTRKRHPELSGEGSDKKQGQKRDRSRSSTSSNASGADEDGAHKARAPGYTSSPPSPPLGMAASPKRTAPTTSSRRFFQSLREYPRSLEHGDLHAWARGTAAQQARDCLQAATTLTQSSTSTVDGSSDAATLGPLPITNEEDVAVLRCQYDALAAAESVVEKQLRAYSDTVQELRGWYRGELCTQQFRYELEAWLRTQEESRAVLTDLYAQMHAMRYSLQRDLSNYLHLHALGVL | soluble
EGGEPCACPHALHRVCGSDGETYSNPCTLNCAKFNGKPELVKVHDGPCEPDEDEDVCQECDGDEYKPVCGSDDITYDNNCRLECASISSSPGVELKHEGPCRT | soluble
KGESYKGKVAVASVVLNRTEKKGFPDTIRGVIYQKNAFEPVANGSINQKPDKESIEAAEEALSSKNRETDAIFFYNPKTASDNWIRSRKIVEKIGRHVFAV | not soluble
VSFPSSPPALPAIVARFAVGRPVRAVWVNELGGVTFRVDSGMGAGCEFIKVARRGTADFANEARRLRWAAPYLAVPRVLGVGVDGDWAWLHTDALPGLSAVHPRWRASPQVAVPALGAGLRTLHDSLPVHSCPFDWSTASRLAKLAPARRAELGDSPPVDRLVVCHGDACSPNTILDDTGRCCGHVDFGNLGVADRWADLAVATLSLQWNFPDYPGQVRDDEFFAAYGVAPDPARIDYYRRLWQAEDDSSR | soluble
MTSSDKSLSHDVFVYGSFQEPSVVNLILECSPVMVPAQLHGYHVYRLKGRLHACISPSENGLINGKILTGLTDSQLENLDMIEGSEYVRKTVEVVLTDTSEKKQVETYVWANKDDPNLYGEWDFEEWRRLHMDKFIEASTKFIEWKKNPDGRSREEFEKFVFDDPPTAA | soluble
TYSLRTFFVRESAEGLTQGELMKLIKEIVENEDKRKPYSDQEIANILKEKGFKVARRTVAKYREMLGIPSSRERRI | soluble
MPTSLKDTVKLHNGVEMPWFGLGVFKVENGNEATESVKAAIKNGYRSIDTAAIYKNEEGVGIGIKESGVAREELFITSKVWNEDQGYETTLAAFEKSLERLQLDYLDLYLIHWPGKDKYKDTWRALEKLYKDGKIRAIGVSNFQVHHLEELLKDAEIKPMVNQVEFHPRLTQKELRDYCKGQGIQLEAWSPLMQGQLLDNEVLTQIAEKHNKSVAQVILRWDLQHGVVTIPKSIKEHRIIENADIFDFELSQEDMDKIDALNKDERVGPNPDELLF | soluble
GMQDERWNHPLYTTTAINDEELEGHAYIPGGLKVQTSSPMNDHPGTNPEQLLGLSLSTCLEATLEAVEKEHGLPHTGAVRVKVAFIGARAEYQFLVHAQVMVKGVDFDTAKAFTNEIENRCPVSKLLKNSGNYTIETVTDFKD | soluble
MLSKKELAIITFLIHHKEQFVSSATLAEVIGMSDRTVRKYLKELISSLPEHGAHIISKQGRGYCLEIDHSMAFDIFWQESVTSKKRLADVTQVEESVDREDYVLHKFFFEDAVQDFEELCQELYISRTTLKHVLAGIKERIIPYQLELEITHQHIQIRGKEEDIRHFIMDYFFVTSFDNTLSTMVGNTFLEGINFAEIMIIVLDECRDAKLKLSDFVMNNLVLHIALMVQRIRSGCPLELFSIPIAIRQSDEYQVALRILYRVEEVMGIRFPKEEANYIALHLKVKHSVGKHWQDDNTDEKLQDHLKACIAKISQLTGMTLETDTNLFQGLLAHMMPLTIRLENHIQLTNPLTEEIKSQYPEIFTLTKQTFSDLLVCQKNDVSDDEWAYISLHLMAAIERYSNRHKLRVLVVCATGYGSAMMLKNRLEKEFEGRLRIVDVISYYEITEERLKTVDLIISSISLANLMFLTPVITVSVFLSNQDIETIRQFIGEQEGIKKEVSLPSQMSLAKAEQLLTGVFSPNRFLYLDEKISKEDLLLRMIACLDEAGTETFVEDFYHQMVLRENYSPVIYGEVLAFPHPANPMTYSEQVVVVICREPLEWDKAHQAVHFVFLLSPSKGHNHRLKYVSPGLASFVNQVELQQALLEEPNYSKFMTVFTPLIHD | not soluble
MLRVLIVDDEMLARDELAYLLKRTNDEMEINEAENIESAFDQMMDQKPDLLFLDVDLSGENGFDIAKRLKKMKHPPAIVFATAYDQYALKAFEVDALDYLTKPFDEERIQQTLKKYKKVNRDIVETEQNSHAGQHKLALSVGESIVIVDTKDIIYAGTEDGHVNVKTFDHSYTVSDTLVVIEKKLPDSDFIRVHRSFVVNTEYIKEIQPWFNSTYNLIMKDGSKIPVSRTYAKELKKLLHI | not soluble
MAHHHHHHMMYTGEIENGQMHGRGCLIYPNKEKYEGDWVYGKRHGHGVYTYADGSKYDGEWVEDKVHGKGTCYYASGNRYSGDWTFGRINGRGTLEYADGDRYDGEWKDGRMHGKGLYYYSNGDRYDGEWKDDKRHGKGTVTYAGPDGSVSEKFDGDWVEGRMQGWGKYYYADGGVYEGEWQDGKMHGKGTYIFPNGNKYEGEWCDDVKQGYGVLTYVNGERYEGYWLDDKAHGTGTLTYLQGDRYTGEWYQGKKHGRGTLAYSNKDTYEGEWRNDSATGRGVLEYANGCRYEGDWLDDRRHGEGQLLLPDGSSYEGGWVNGKKEGRARIILKCGAVFVGTWKDNLIVGQGEFYLSENCDLNNPDY | soluble
MNLNYKFERLYRVLFNEEMFYVAYQNIYSKTGNMTAGADGKTIDGMSIDRVEQLIGSLKNETYQPNPSKRTYIPKKNGKKRPLGIPSFDDKLVQEVVRMILEAIYEGSFEHTSHGFRPKRSCHTALIDIQKTFTAVKWFIEGDIKGFFDNINHDVLINILRERIADERFLRLIRKFLNAGYVEDWVFHRTYSGTPQGGIISPILANIYLDKFDKYIKEYINRFNKGVTRKGDARYKLYEQRRYRLAKKLKNEKDVKVRKQMTAEIKRLREERNNYPARNEMDSSIKRLKYVRYADDFLIGITGNLEDCKTVKEDIKNYLNEALKLELSDEKTLITNAQKPAKFLGYDVFIRRCNDLRKDKYGKTVRAFGHKPVLYLNFETMRKKLFDYKAARIAVVNGKEVWKSIVRTYMLNLDDLEIVSQFNAEIRGFYNYYSIANNSYVINSFYHIMSYSMYKVFANKYKSSVKKILLKYKKNKVFQVAYENSKGKTLYQSFYHDGFKRKKVAGNIYCDTIPRTVSITGGRNSLMERLKLQVCELCGATDKLEMHHVRKLKDLKGKSDWEKKMIARRRKTLAVCSKCHAKIDPDRRIRLNLEHHHHHH | not soluble
MGSDKIHHHHHHMMKSNENNGAVTKSFAKKMESISPFELKNKLIEMADESIKKIAHTMLNAGRGNPNWIATTPREAFFLLGKFGLEECRRVMYLPEGIAGIPQKDGIAARFETFLKTNHSQPGAELLKGTYQYMLLEHAADPDTLVHEWAEGVVGDQYPVPDRILQFTEMIVQDYLAQEMCDRRPPKGKYDLFATEGGTAAMCYVFDSLQENFLLNKGDGIALMVPVFTPYIEIPQLRRYEFNVTEISADQMTTDGLHTWQYKDEDIDRLRNPQIKALFITNPSNPPSYTLSPETAARIVDIVKKDNPNLMIITDDVYGTFSPHFRSLMAELPQNTLCVYSFSKYFGATGWRDAVIALHEENIFDRMIAHLPEEQKTILNKRYSSLTLTPEKLKFIDRMVADSRQVALNHTAGLSLPQQTQMSLFASFAILDKENRYKNKMQEIIRRRLKALWDNTGFSLVDDPLRVGYYSEIDMLVWAKIFYGEEFVSYLKKTYSPLDVVFRLANETSLVLLNGGGFAGPEWSVRVSLANLNEKDYVKIGQGIKRILDEYAVKWQESRK | not soluble
